Measurements taken from article PMC11565934 (bioRxiv, 2024).

Target: myristylated PKA-Cα K7C (mouse, UniProt P05132 1-351, K7C, N-terminal myristylation)
Assay: SPR

B1: phosphorylated SMO IFR→AAA (I573A, F577A, R580A; FLAG-tagged mouse SMO 64-674) in nanodiscs (receptor)
chain: LLSHCGRAAHCEPLRYNVCLGSALPYGATTTLLAGDSDSQEEAHGKLVLWSGLRNAPRCWAVIQPLLCAVYMPKCENDRVELPSRTLCQATRGPCAIVERERGWPDFLRCTPDHFPEGCPNEVQNIKFNSSGQCEAPLVRTDNPKSWYEDVEGCGIQCQNPLFTEAEHQDMHSYIAAFGAVTGLCTLFTLATFVADWRNSNRYPAVILFYVNACFFVGSIGWLAQFMDGARREIVCRADGTMRFGEPTSSETLSCVIIFVIVYYALMAGVVWFVVLTYAWHTSFKALGTTYQPLSGKTSYFHLLTWSLPFVLTVAILAVAQVDGDSVSGICFVGYKNYRYRAGFVLAPIGLVLIVGGYFLIRGVMTLFSIKSNHPGLLSEKAASKINETMLRLGIFGFLAFGFVLITFSCHFYDFFNQAEWERSFRDYVLCQANVTIGLPTKKPIPDCEIKNRPSLLVEKINLFAMFGTGIAMSTWVWTKATLLIWRRTWCRLTGHSDDEPKRIKKSKMAAKAASKARELLQNPGQELSFSMHTVSHDGPVAGLAFDLNEPSADVSSAWAQHVTKMVARRGAILPQDVSVTPVATPVPPEEQANMWLVEAEISPELEKRLG
modifications: GRK2/3-phosphorylated; mapped sites pS560, pS594, pT597, pS599, pS615, pS642, pT644, pT648
Q: How did the Kd turn out when B1 was run?
A: 222 nM
